Laboratory results published in US20210147922.

Experiments:
Assay in all cases: cell_activity
[1] = test system: AAVS1_R TALEN right monomer; conditions: paired with AAVS1_L, 2 ug per monomer, K562 cells
[2] = test system: GA6_R TALEN right monomer; conditions: paired with GA6_L, 2 ug mRNA per monomer, K562 cells
[3] = test system: GA6_EK TALEN right monomer; conditions: GA6_EK pair; GA6 54% in same table
[4] = test system: GA7_EK TALEN right monomer; conditions: GA7_EK pair, CD34+ cells; GA7 50%
[5] = test system: GA7_R TALEN right monomer; conditions: paired with GA7_L, 2 ug per monomer, CD34+ cells
[6] = test system: AAVS1_L TALEN left monomer; conditions: paired with AAVS1_R, 2 ug per monomer, K562 cells
[7] = test system: GA7_EK TALEN left monomer; conditions: GA7_EK pair, CD34+ cells; GA7 50%
GA7_L TALEN left monomer = conditions: paired with GA7_R, 2 ug per monomer, CD34+ cells
[8] = test system: GA6_L19 TALEN left monomer; conditions: paired with GA6_R, K562 cells
[9] = test system: GA6_EK TALEN left monomer; conditions: GA6_EK pair; GA6 54% in same table
[10] = test system: GA6_L (GA6_L14) TALEN left monomer; conditions: paired with GA6_R, K562 cells
[11] = test system: GA6_L17 TALEN left monomer; conditions: paired with GA6_R, K562 cells

Sequence “AGGATTGGTGACAGAAA (double strand) [AAVS1 right half-site (printed top strand)]” has an activity [1] of 93 % editing.

In the case of “AGTGCATGGCTGCAATGTGTGA (double strand) [GA6 right half-site (printed top strand)]”, the activity [2] is reported as 91 % editing and the activity [3] is reported as 36 % editing.

With “ATGGTAGAGAATGAGAGGGGGA (double strand) [GA7 right half-site (printed top strand)]” the activity [4] was 20 % editing and the activity [5] was 70 % editing.

Work on “TCCCCTCCACCCCACAGT (double strand) [AAVS1 left half-site]” yielded an activity [6] of 93 % editing.

“TGCTCAGCCCAGCTCAGCCT (double strand) [GA7 left half-site]” gave an activity [7] of 20 % editing and an activity (GA7_L TALEN left monomer) of 70 % editing.

With “TGGAGTGTGTAACAATGCCT (double strand) [GA6_L19 left half-site]” the activity [8] was 86 % editing.

Sequence “TGTGTAACAATGCCT (double strand) [GA6 left half-site]” has an activity [9] of 36 % editing and an activity [10] of 96 % editing.

With “TGTGTAACAATGCCTGTG (double strand) [GA6_L17 left half-site]” the activity [11] was 98 % editing.
